Paper PMC6633393 (Journal of cell science, 2019)

Molecular target: Histidine-tagged human TEAD4 (amino acids 217–434) (human, UniProt Q15561 217-434)
Test: native gel or EMSA; TEAD4 incubated with increasing concentrations of VGLL3 peptide before labelled YAP was added; 10 min at room temperature; 10% native gel at 100 V; only labelled YAP is seen
Settings: both partners purified

Sequence of Histidine-tagged human TEAD4 (amino acids 217–434) (Q15561 217-434): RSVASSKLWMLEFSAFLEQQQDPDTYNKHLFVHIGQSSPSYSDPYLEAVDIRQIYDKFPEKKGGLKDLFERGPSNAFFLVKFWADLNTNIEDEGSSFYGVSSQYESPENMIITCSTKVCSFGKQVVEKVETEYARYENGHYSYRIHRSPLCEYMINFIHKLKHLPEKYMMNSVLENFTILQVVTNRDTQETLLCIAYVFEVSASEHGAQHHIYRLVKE

SRCVLFTYFQGDIGSVVDEHFSRALGQ (peptide, UniProt A8MV65 86-112, looked up) [Unlabelled human VGLL3 (amino acids 86–112) peptide]
binding result: binds
